Measured values taken from US20240287172A1 (SCIRHOM, published 2024).

T1: hiR2-FL-T544P-T7 (human, UniProt Q6PJF5 1-856)
T1 sequence: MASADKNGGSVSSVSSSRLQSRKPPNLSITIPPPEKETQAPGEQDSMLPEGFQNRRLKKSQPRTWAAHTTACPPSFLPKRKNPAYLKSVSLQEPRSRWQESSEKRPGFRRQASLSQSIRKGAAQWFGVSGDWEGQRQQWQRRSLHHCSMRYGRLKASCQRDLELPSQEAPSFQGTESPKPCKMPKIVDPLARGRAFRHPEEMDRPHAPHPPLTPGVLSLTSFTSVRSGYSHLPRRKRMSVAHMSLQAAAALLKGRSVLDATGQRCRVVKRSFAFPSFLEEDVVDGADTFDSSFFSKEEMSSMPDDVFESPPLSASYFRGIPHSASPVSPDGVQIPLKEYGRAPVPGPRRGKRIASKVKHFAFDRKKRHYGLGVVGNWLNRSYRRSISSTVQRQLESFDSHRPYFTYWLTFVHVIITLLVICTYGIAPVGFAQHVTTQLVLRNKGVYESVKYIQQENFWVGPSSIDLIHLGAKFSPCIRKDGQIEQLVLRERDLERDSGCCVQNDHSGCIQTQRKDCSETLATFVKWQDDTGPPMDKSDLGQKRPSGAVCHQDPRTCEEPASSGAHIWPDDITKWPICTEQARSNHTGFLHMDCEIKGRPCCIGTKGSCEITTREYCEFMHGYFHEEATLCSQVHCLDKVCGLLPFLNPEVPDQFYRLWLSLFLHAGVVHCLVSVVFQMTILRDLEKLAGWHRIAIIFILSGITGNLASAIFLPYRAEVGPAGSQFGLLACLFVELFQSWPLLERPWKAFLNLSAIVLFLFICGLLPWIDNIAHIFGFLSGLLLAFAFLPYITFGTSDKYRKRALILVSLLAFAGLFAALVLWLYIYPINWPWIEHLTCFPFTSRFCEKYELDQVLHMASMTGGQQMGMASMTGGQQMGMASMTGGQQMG

T2: hiR1-FL-WT-T7 (human, UniProt Q96CC6 1-855)
T2 construct: on MEF-DKO cells
T2 sequence: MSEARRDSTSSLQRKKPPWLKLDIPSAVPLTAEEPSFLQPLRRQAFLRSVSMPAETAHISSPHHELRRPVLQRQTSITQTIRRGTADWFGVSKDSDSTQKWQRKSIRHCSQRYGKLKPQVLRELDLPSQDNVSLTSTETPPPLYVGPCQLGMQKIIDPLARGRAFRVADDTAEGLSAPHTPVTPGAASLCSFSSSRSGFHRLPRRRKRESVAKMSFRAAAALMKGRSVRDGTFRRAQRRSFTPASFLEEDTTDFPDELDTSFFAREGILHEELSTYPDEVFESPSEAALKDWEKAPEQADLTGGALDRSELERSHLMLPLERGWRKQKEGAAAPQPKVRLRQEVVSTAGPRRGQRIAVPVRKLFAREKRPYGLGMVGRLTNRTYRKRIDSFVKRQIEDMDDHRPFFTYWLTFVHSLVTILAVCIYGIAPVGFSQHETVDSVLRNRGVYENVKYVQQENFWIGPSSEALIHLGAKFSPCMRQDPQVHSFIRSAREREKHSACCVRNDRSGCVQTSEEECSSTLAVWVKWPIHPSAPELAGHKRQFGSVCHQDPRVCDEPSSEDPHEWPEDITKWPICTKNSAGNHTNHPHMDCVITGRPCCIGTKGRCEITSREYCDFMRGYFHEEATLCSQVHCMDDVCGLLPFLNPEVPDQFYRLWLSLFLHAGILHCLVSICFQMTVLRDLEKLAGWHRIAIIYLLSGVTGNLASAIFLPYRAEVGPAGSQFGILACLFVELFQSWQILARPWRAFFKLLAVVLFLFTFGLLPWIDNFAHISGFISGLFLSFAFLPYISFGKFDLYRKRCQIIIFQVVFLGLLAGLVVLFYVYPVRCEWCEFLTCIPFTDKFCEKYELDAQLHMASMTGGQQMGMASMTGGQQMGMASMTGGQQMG


Assays:
hiR2-FL-T544P-T7 = target: T1, hiR2-FL-T544P-T7; assay: FACS, MEF-DKO cells, 3 µg/ml
Description: In brief, immortalized MEF-DKO-hiR2-FL-WT-T7 cells, MEF-DKO-miR2-FL-WT-T7 cells and MEF-DKO-hiR2-FL-R441K-T7, MEF-DKO-hiR2-FL-K443R-T7, MEF-DKO-hiR2-FL-V459I-T7, MEF-DKO-hiR2-FL-G481Q-T7, MEF-DKO-hiR2-FL-L488R-T7, MEF-DKO-hiR2-FL-L493I-T7, MEF-DKO-hiR2-FL-D496T-T7, MEF-DKO-hiR2-FL-H505R-T7, MEF-DKO-hiR2-FL-Q512L-T7, MEF-DKO-hiR2-FL- R513K-T7, MEF-DKO-hiR2-FL-D528N-T7, MEF-DKO-hiR2-FL-P533-T7, MEF-DKO-hiR2-FL-M534S-T7, MEF-DKO-hiR2-FL-G540S-T7, MEF-DKO-hiR2-FL-R543Q-T7, MEF-DKO-hiR2-FL-T544P-T7, MEF-DKO-hiR2-FL-G546A-T7, MEF-DKO-hiR2-FL-A547V-T7, MEF-DKO-hiR2-FL-R582Q-T7, MEF-DKO-hiR2-FL-F588L-T7, MEF-DKO-hiR2-FL-M591I-T7, MEF-DKO-hiR2-FL-E594K-T7, MEF-DKO-hiR2-FL-E626D-T7, MEF-DKO-hiR2-FL-L657I-T7, and MEF-DKO-hiR2-FL-H835Y-T7 cells were harvested with 10 mM EDTA in PBS, washed and resuspended in FACS buffer (PBS, 3% FBS, 0.05% sodium azide), and seeded in Nunc U-bottom 96-well plates (Thermo Fisher Scientific, USA) at approximately 3×10⁵ cells per well.
To pellet cells and remove supernatants, the plates were centrifuged at 1,500 rpm and 4° C. for 3 minutes. For primary staining, cells were resuspended in 100 μl per well of either FACS buffer alone (controls) or the purified antibodies 3, 5, 16, 22, 34, 42, 43, 44, 48, and 50 of the invention at 3 μg/ml FACS buffer and incubated on ice for 1 hour. Afterwards, plates were centrifuged at 1,500 rpm and 4° C. for 3 minutes and washed twice with 200 μl per well of FACS buffer. For secondary staining, cells were spun down and resuspended in 100 μl per well of PE-conjugated goat anti-mouse IgG F(ab′)2 detection fragment (Dianova, Germany) diluted 1:100 in FACS buffer. Protected from light, the cell suspensions were incubated on ice for 1 hour. Plates were then centrifuged at 1,500 rpm and 4° C. for 3 minutes and washed three times with 200 μl per well of FACS buffer. Finally, cells were resuspended in 150 μl per well of FACS buffer and analyzed using a BD Accuri™ C6 Plus flow cytometer (Becton Dickinson, Germany).

hiR1-FL-WT-T7 = target: T2, hiR1-FL-WT-T7; assay: FACS on MEF-DKO cells

Binder	loss of binding vs wild type (hiR2-FL-T544P-T7) [%]	binding result (hiR1-FL-WT-T7)
antibody 48 (antibody, V domains shown, mouse IgG, kappa light chain; also called clone #48; purified antibody 48) VH: QVQLQQSGTELVRPGTSVKVSCKASGYAFTNYLIEWVKQRPGQGLEWIGVINPGSGFTKYNEKFKGKATLTADKSSSTVYMHLSSLTSEDSAVYFCARGLYRAMDYWGQGTSVTVSS VL: DIQMTQSPASQSASLGESVTITCLASQTIATWLAWYQQKPGKSPQLLIYGATTLADGVPSRFSGGGSGTKFSFKISSLQAEDFVSYYCQQLYSTPYTFGGGTKLEIK	≥ 30	–
antibody 50 (antibody, V domains shown, mouse IgG, kappa light chain; also called clone #50; purified antibody 50) VH: QVQLQQSGAELVRPGASVKVSCKASGYAFSNYLIEWVKQRPGQGLEWIGVINPGSGFTKYNEKFKGKATLTADKSSSTAYMQLSSLTSEDSAVYFCARGLYRAMDYWGQGTSVTVSS VL: DIQMTQSPASQSASLGESVTITCLASQTIGTWLAWYQQKPGKSPQLLIYAAASLADGVPSRFSGGGSGTKFSFKISSLQAEDFVNYYCQQIYSTPYTFGGGTKLEIK	≥ 30	no binding (tested: 3 µg/ml)
antibody 3 (antibody, V domains shown, mouse IgG, kappa light chain; also called clone #3; purified antibody 3) VH: QVTLKESGPGILQPSQTLSLTCSFSGFSLTTFAMGIGWVRQPSGKGLEWLAHIWWDGEKYNNPVLKSRLTISKDTSKNQVFLRIANVDTPDTATYYCARISSIYYIIDNWGQGTSVTVSS VL: DIVLTQSPATLSVTPGHSVSLSCRASQSISNNLHWYQKKSHESPRLLIKYVSQSISGIPSRFSGSGSGTDFTLSINSVETEDFGMYFCQQSYNWPLTFGAGTKLELK	≥ 60	–
antibody 5 (antibody, V domains shown, mouse IgG, kappa light chain; also called clone #5; purified antibody 5) VH: QVTLKESGPGILQPSQTLSLTCSFSGFSLSTFGMGVGWIRQPSGKGLEWLAHIWWDDEKYYNSALKSRLTISKATSKNQAFLKIANVDTADTATYYCARISNYGSNYWYFNVWGTGTTVTVSS VL: QVVLTQSPALMSASPGEKVTMTCSAGSSVSCMYWYQQKPGSSPRVLIYDTSNLASGVPARFTGSGSGTSYSLTISRMEAEDAASYYCQQWNSYPLTFGAGTKLELK	≥ 60	–
antibody 42 (antibody, V domains shown, mouse IgG, kappa light chain; also called clone #42; purified antibody 42) VH: QVTLKESGPGILQPSQTLSLTCSLSGFSLSTFGRGVGWIRQPSGKGLEWLAHIWWDDEKYYNPALKSRLTISKDTSKNQVFLRIANVDTADTATYYCARIQNYGSNYWYFDVWGTGTTVTVSS VL: LIVLTQSPAIMSASPGEKVTMTCGATSRISYMFWYQQKPGSSPRVLIYDTSNLASGVPVRFSGSGSGTSYSLTISRVEAEDVATYYCQQWNSYPLTFGAGTKLELK	≥ 60	no binding (tested: 3 µg/ml)
antibody 43 (antibody, V domains shown, mouse IgG, kappa light chain; also called clone #43; purified antibody 43) VH: QVALKESGPGILQPSQTLSLTCSFSGFSLSTFGMGVGWIRQSSGKGLEWLANIWWDDDKYYNPALKSRLTISKDASKNQAFLKIANVDTADTATYYCARIGNYGSNYWYFDVWGTGTTVTVSS VL: QIVLTQSPAIMSASPGERVTMTCSANSRISYMYWYQQKPGSSPRLLIYDTSNLASGVPVRFSGSGSGTSYSLTISRMEAEDAATYNCQQWSSYPLTFGAGTKLELK	≥ 60	no binding (tested: 3 µg/ml)
antibody 44 (antibody, V domains shown, mouse IgG, kappa light chain; also called clone #44; purified antibody 44) VH: QVTLKESGPGILQPSQTLSLTCSFSGFSLSTFGMGVGWIRQPSEKGLEWLAHIWWDDDKYYNPALKSRLTISKDTSKNQIFLKITNVDTAETATYYCSRIGNYGSNYWYFDVWGTGTTVTVSS VL: QIVLTQSPAVMSASPGEKVTMTCTASSSVYYMYWYQQTPGSSPRLLIYDTSNLASGVPVRFSGSGSGTSYSLTISRMEAEDAATYYCQQWNTYPLTFGAGTKLELK	≥ 30	no binding (tested: 3 µg/ml)
antibody 22 (antibody, V domains shown, mouse IgG, kappa light chain; also called clone #22; purified antibody 22) VH: QVTLKESGPGILQPSQTLSLTCSFSGFSLSTFGMGVGWIRQPSGKGLEWLAHIWWDDEKYYNSALKSRLTISKATSKNQVFLKIANVDTADTATYYCARISNYGSNYWYFNVWGTGTTVTVSS VL: QVVLTQSPALMSASPGEKVTMTCSAGSSVSYMYWYQQKPGSSPRVLIYDTSNLASGVPARFTGSGSGTSYSLTISRMEAEDAATYYCQQWNSYPLTFGAGTKLELK	≥ 30	–
antibody 34 (antibody, V domains shown, mouse IgG, kappa light chain; also called clone #34; purified antibody 34) VH: QVTLKESGPGILQPSQTLSLTCSFSGFSLSTFSLGVGWIRQSSGKGLEWLAHIWWDDEKYYNPALKSRLTISKDTSKNQVFLKIANVDAADTATYYCARAYYSKSYYALDYWGQGTSVTVSS VL: DIQMTQSPSSLSASLGERVSLTCRASQEISGYLSWLQQKPDGTIKRLIYAASTLDSGVPKRFSGSRSGSDYSLAISSLESEDFADYYCLQYANFPFTFGSGTKLEIK	≥ 60	no binding (tested: 3 µg/ml)
